Laboratory results published in US20150104459A1.
Where a chain is given by its changes, count along the chain named.

B1: 3259_J21 (antibody, V domains shown)
VH: QVQLQESGPRVVRPSETLSLTCTVSGGSISSYNWIWIRQPPGKGLEWIGHIYDYGRTFYNSSLQSRPTISVDASKNQLSLRLTSVTASDTAVYYCARPLGILHYYAMDLWGQGTTVTVSS
VL: DIQMTQSPLSVSVSVGDRVTIACRASQSIDKFLNWYQQKPGKAPKLLIYGASNLHSGAPSRFSASGSGTDFTLTITNIQTEDFATYLCQQSFSVPAFGGGTKVEIK
B2: 3245_O19 (antibody, V domains shown)
VH: EVQLVESGGGLVQPGGSLRLSCTASGLSVSSTYMNWVRQAPGKGLEWVSVFYSETRTYYADSVKGRFTVSRHNSNNTLYLQMNSLRVEDTAVYYCARVQRLSYGMDVWGQGTTVTVSS
VL: DIQMTQSPSSLSASVGDRVTITCRASQSISTYLNWYQKRPGKAPKLLVYGASTLQSGVPSRFSGSGSGTDFTLTIASLQPEDSATYYCQQTYSIPLFGQGTRLEIK
B3: 3244_H04 (antibody, V domains shown)
VH: B2 VH with V87A
VL: B2 VL with T53S, T85V
B4: 3241_G23 (antibody, V domains shown)
VH: QVQLQQSGPGLVKPSQTLSLTCTVSGGPVSGGGYSWNWIRQRPGQGLEWVGFMFHSGSPRYNPTLKSRITISVDTSKNLVSLKLSSVTAADTAVYFCARVGQMDKYYAMDVWGQGTTVTVSS
VL: DIQMTQSPSSLSSSVGDRVTITCRASQSIGAYVNWYQQKAGKAPQVLIFGASNLQSGVPSRFSGSGSGTDFTLTISSLQPEDFATYFCQQTYSTPITFGQGTRLEIK
B5: 3244_I10 (antibody, V domains shown)
VH: QVQLQESGPGLLKPSDTLALTCTVSGGSITSDYWSWIRQPPGRGLDWIGFFYNGGSTKYNPSLKSRVTISADTSKNQLSLKLTSVTAADTGVYYCARHDAKFSGSYYVASWGQGTRVTVSS
VL: DIQMTQSPSSLSASVGDRVTISCRASQSISTYLNWYQQQPGKAPKVLIFGATNLQSGVPSRFSGSGSGTDFTLTISSLQPEDFATYYCQQSYNTPLIFGQGTKLEIK
B6: 3243_J07 (antibody, V domains shown)
VH: B5 VH with A100V
VL: B5 VL with F49S
B7: 3252_C13 (antibody, V domains shown)
VH: QVQLQESGPGLVKPSETLSLTCTVSGASISSDYWSWIRLPPGKGLEWIGYIYNRGSTKYTPSLKSRVTISLDTAENQFSLRLRSVTAADTAIYYCARHVGGHTYGIDYWGQGTLVTVSS
VL: DIQMTQSPSSLSASVGDRVTITCRASQSISNYLNWYQHKPGEAPKLLNYAASSLQSGVPSRFSASGSGTDFTLTISSLQPEDFATYYCQQSYNTPITFGQGTRLEIK
B8: 3255_J06 (antibody, V domains shown)
VH: B7 VH with I92V
VL: B7 VL with T74S, S77G, Q100P
B9: 3420_I23 (antibody, V domains shown)
VH: QVQLQESGPGLVKPSETLSVTCKVSGDSISSYSWSWIRQPPGKGLEWVGYLYYSGSTKYNPSLKSRTTISVDTSTNQLSLKLSFVTAADTAVYFCARTGSESTTGYGMDVWGQGTTVTVSS
VL: B7 VL with N31T, H38Q, E42K, N48I, Q55H, A64G, T72A, N93S, T94P
B10: 3136_G05 (antibody, V domains shown)
VH: QVQLQESGPGLVKPSETLSLTCSVSGGSISSDFWSWIRQPPGKGLEWIGYVYNRGSTKYSPSLKSRVTISADMSKNQFSLNMSSVTAADTAVYYCAKNGRSSTSWGIDVWGKGTTVTVSS
VL: DIQMTQSPSSLSASVGDRLTITCRASQSISTYLHWYQQKPGKAPKLLIYAASSLQSGVPSRFSGSRSGTDFTLTISSLQPDDFATYYCQQSYSPPLTFGPGTKVDMK

target: M2 protein of influenza A/Hong Kong/483/97 (H5N1) (influenza A virus A/Hong Kong/483/97 (H5N1))
Note: test concentration or dose not given here.

Binder | FACS M2-HK MFI [MFI]
B1 | 1670
B2 | 919
B3 | 963
B4 | 1700
B5 | 434
B6 | 131
B7 | 449
B8 | 442
B9 | 112
B10 | 109
